This is an account of results in patent US9371393B2, “Class I anti-CEA antibodies and uses thereof” (Immunomedics, Inc., priority 2009, dated 2016).

Test [1] relates to CaPAN-1 adhesion to fibronectin. Nature of the test: Adhesion to extracellular matrix proteins assay, CaPAN-1. Type of test: cell-based, human. On the procedure:
Adhesion to extracellular matrix proteins assay—The assay was done using the CYTOMATRIX™ screening kit from CHEMICON® (Kit #ECM205, Temecula, Calif.). The kit contains 96-well plates with strips coated with fibronectin, vitronectin, laminin, collagen-I, or collagen-IV. Subconfluent cell cultures were used for these studies. Cells (1×10^6 cells/mol) were seeded onto coated substrate and incubated at 37° C. for 1 hour in a CO2 incubator in PBS containing Ca^2+/Mg^2+ (200 μL per well). Adherent cells were fixed and stained. The plate was washed to remove unadhered cells and stained with 100 μL per well of MTS (Cell Titer Aq 96, PROMEGA®, Madison, Wis.) for 5 minutes at room temperature. Excess stain was removed with three PBS washes. Solubilization buffer [100 μL of a 50:50 mixture of 0.1 mol/L NaH2PO4 (pH 4.5) and 50% ethanol] was added to each well. Relative attachment was determined using absorbance readings (A540 nm-A570 nm).

Test [2] addresses T1, NCA-95 (HeLa-CGM6/1) (Homo sapiens, UniProt P31997).
T1 construct: expressed in transfected cells; host or cells: HeLa (HeLa-CGM6/1)
T1 sequence (P31997 35-320): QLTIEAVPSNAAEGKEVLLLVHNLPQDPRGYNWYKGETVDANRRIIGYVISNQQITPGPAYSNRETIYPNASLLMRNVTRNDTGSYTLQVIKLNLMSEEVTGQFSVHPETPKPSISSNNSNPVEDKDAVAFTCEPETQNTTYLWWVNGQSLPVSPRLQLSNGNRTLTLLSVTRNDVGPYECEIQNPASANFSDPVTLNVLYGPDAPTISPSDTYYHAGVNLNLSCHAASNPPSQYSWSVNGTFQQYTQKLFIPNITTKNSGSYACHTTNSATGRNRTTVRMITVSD
The test is described as follows: Indirect flow cytometry, HeLa-CGM6/1. Type of test: binding. The note with it: antibodies at 1/50 dilution of 1 mg/ml stocks. The procedure:
The reactivity of antibodies was tested by flow cytometry with a Becton-Dickinson FACSCAN®. The biotinylated second antibody was directed against mouse IgG and was detected by a streptavidin/phycoerythrin conjugate. Tests were carried out with antibodies at 1/50 dilution of 1 mg/ml stocks.
The antibodies MN-3 and MN-15 were tested for recognition of HeLa cells transfected with cDNA coding for CEA (HeLa-CEA2), NCA-90 (HeLa-KNC6/S44) and NCA-95 (HeLa-CGM6/1). As a negative control, HeLa cells transfected with the plasmid pSV2-Neo (control HeLa cells, HeLa-NeoA) were used. In addition to the antibodies MN-3 and MN-15, three control antibodies were included: […]

For test [3], the system named is NCA, MA, CEA. Nature of the test: Specificity for NCA, MA and CEA. Type of test: binding. From the text:
In 1983, Primus et al. described the first panel of MAbs (NP-1, NP-2, NP-3, and NP-4) that defined NCA-cross-reactive, MA-cross-reactive, and CEA-specific epitopes on the CEA molecule (Primus et al., Cancer Res 1983, 43:686-92). […] The “ion-sensitive” determinant on CEA first was delineated by Hansen et al. (Clin Res 1971, 19:143) using unadsorbed anti-CEA polyclonal serum, and subsequently by Haskell et al. (Cancer Res 1983, 43:3857-64) with MAb. NP-2 and NP-3 react with MA and CEA but not with NCA, whereas NP-4 reacts only with CEA (Primus et al., 1983). […] The present Example describes the production and characterization of a second generation of anti-CEA antibodies, including the MN-15 Class I anti-CEA MAb.
The reagents, formulation, standards, and assay protocol of the sandwich EIA used in these studies have been described elsewhere (Hansen et al., Clin Chem 1989, 35:146-51). All assays were performed with microwells coated with NP-1, except in one experiment, in which microwells were coated with MN-15. […] After the second incubation, the amount of probe bound to CEA was determined by washing out the unbound probe, adding substrate (o-phenylenediamine/hydrogen peroxide), adding acid to stop the reaction, and quantitating the color product by reading the adsorbance at 490 nm. […]

In test [4] the test system is MCA38cea (human CEA-transfected line) adhesion to HUVEC. The test is described as follows: Endothelial cell adhesion assay, MCA38cea. Type of test: cell-based, murine. The note with it: without antibody 11.68±0.77%. On the procedure: (§1) Percentage adhesion of various tumor cells with varying amounts of expressed CEACAM5 and CEACAM6 to HUVEC cells in the absence or presence of MN-15 Fab′, MN-3 Fab′, or Ag8 Fab′ control. Cells were labeled with 1 μCi/mL of ^3H-thymidine and added to HUVEC cultures and incubated for 30 minutes at 37° C. Samples were washed thrice with PBS to remove unattached cells. Attached tumor cells were solubilized with 0.1 N NaOH and radioactivity was measured in a B-scintillation counter. The cpm attached/total cpm added (attaching potential) was determined. Results of a typical study are presented. Cell lines used include BT-20 (CEACAM5+/CEACAM6+), MCF-7 (CEACAM5−/CEACAM6+), HT-29 (CEACAM5−/CEACAM6+), Moser (CEACAM5+/CEACAM6−), MCA38cea (CEACAM5+/CEACAM6−), and MCA38 (CEACAM5−/CEACAM6−).
(§2) Endothelial cell adhesion assay—Human umbilical vein endothelial cells (HUVEC; Cambrex, San Diego, Calif.) were grown in collagen-coated dishes in EGM Media in a humidified atmosphere with 5% CO2 at 37° C. At passages 2 to 5, cells were plated at a density of 4×10^4 cells per well in 96-well plates 24 hours before the assay. Interleukin-1β (IL-1β, 1 ng/mol) was added 4 hours before the assay. […] Attached cells were solubilized with 0.1 N NaOH and radioactivity was measured in a β scintillation counter. The cpm attached/total cpm added (attaching potential) was determined.

The subject of test [5] is MCA38 (CEACAM5−/CEACAM6−) adhesion to HUVEC. The test is described as follows: Endothelial cell adhesion assay, MCA38. To be noted: 10 μg/mol Fab′. Type of test: cell-based, murine. On the procedure: as §1, §2

B1: MN-15: murine Class I anti-CEA MAb, IgG1 kappa, binds A1B1 domain of CEACAM5 and CEACAM6 (antibody, V domains shown)
VL: DIQLTQSPAIMSASPGEKVTMTCSASSRVSYIHWYQQKSGTSPKRWIYGTSTLASGVPARFSGSGSGTSYSLTISSMEAEDAATYYCQQWSYNPPTFGAGTKLELKR
VH: EVRLVESGGGLVQGPGSLRLSCAASGFALTDYYMSWVRQSPGKTLEWLGFIANKANGHTTDYSPSVKGRFTISRDNSQTILYLQMNTLRTEDSATYYCARDMGIRWNFDVWGQGTTVTVSS
Turning to B1, in test [1], the “decrease of adhesion to fibronectin” value stood at 47%. For the same molecule, the “binding to NCA-95” value in test [2] is “binds to all three antigens”. In addition, the “reactivity with NCA, MA and CEA” value in test [3] is “reacted with normal cross-reactive antigen (NCA), MA, and CEA”.

B2: MN-15 Fab′: monovalent Fab′ fragment of murine MN-15 (antibody, V domains shown)
VL: B1 VL
VH: B1 VH
In turn, B2 yielded an endothelial cell binding in test [4] of 5.53±1.15%. For the same molecule, the “effect on tumor cell-endothelial cell adhesion” value in test [5] was “neither MN-3 Fab′ targeting the N domain nor MN-15 Fab′ targeting the A1B1 domain of CEACAM6 had an effect”.
